Molecular target: WD-40 repeat-containing protein 5 (WDR5), full-length (human, UniProt P61964 1-334)
Assay: ITC

B1: Histone H3 1–12aa unmodified peptide (peptide)
peptide: ARTKQTARKSTG
  Kd: 10.6 ± 0.8 µM
